Positions count from the first letter of the chain named.

Holding throughout (assay): phage ELISA
Test [1] addresses T1, recombinant mouse TfR-1 (mouse, UniProt Q62351 89-763).
T1 construct: Bought recombinant protein; also called mTfR1
The method, then:
After the third round of selection, instead of pooling bacterial colonies, individual phagemid clones were grown in 1 ml of 2TY medium containing glucose and ampicillin in 96-well blocks and used to rescue the phages. After an overnight culturing, bacteria were spun down and an aliquot of the phage supernatant was sent for Sanger sequencing (Genewiz); VNAR CDR3 sequences were identified using BioEdit (a sequence alignment editor). Another aliquot was blocked with 2.5% milk for phage ELISAs. High-binding ELISA plates (Greiner) were coated with 1 μg/ml of recombinant human or mouse TfR-1. The plates were then blocked with 2.5% milk in PBST. Blocked phages were added to the blocked plates and the VNAR-phage clones binding to the antigens were detected with HRP-labelled anti-M13 coat protein antibodies (Sino Biological), and chromogenic TMB substrate (KLM)
T1 sequence (Q62351 89-763 limits assumed): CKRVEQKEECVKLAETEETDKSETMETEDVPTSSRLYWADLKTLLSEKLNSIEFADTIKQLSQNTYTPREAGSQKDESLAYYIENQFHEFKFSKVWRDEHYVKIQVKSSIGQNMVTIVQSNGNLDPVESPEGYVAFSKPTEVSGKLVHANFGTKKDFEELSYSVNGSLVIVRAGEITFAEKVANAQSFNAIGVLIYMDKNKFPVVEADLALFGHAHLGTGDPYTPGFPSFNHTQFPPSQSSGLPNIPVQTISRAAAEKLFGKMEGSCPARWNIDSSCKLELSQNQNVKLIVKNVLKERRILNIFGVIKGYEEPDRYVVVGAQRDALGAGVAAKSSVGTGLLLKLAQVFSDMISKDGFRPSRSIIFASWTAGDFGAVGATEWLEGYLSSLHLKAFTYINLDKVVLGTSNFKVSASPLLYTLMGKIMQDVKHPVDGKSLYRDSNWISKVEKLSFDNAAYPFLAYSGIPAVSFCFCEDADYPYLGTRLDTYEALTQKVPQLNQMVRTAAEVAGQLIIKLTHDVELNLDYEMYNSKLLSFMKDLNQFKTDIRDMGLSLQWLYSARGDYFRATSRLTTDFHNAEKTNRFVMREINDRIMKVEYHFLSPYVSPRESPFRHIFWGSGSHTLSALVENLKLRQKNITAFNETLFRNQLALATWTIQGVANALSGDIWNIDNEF

Test [2] concerns the target T2, recombinant human TfR-1 (human, UniProt P02786 89-760).
T2 construct: Recombinant protein coated at 1 ug/ml in the phage ELISA; also called hTfR1; human transferrin receptor-1

For test [3], the target named is T3, recombinant mouse TfR-1 (mouse, UniProt Q62351 89-763).
T3 construct: Recombinant protein coated at 1 ug/ml in the phage ELISA; also called mTfR1; mouse transferrin receptor-1
T3 sequence (Q62351 89-763 limits assumed): as above

T2 sequence (P02786 89-760 limits assumed): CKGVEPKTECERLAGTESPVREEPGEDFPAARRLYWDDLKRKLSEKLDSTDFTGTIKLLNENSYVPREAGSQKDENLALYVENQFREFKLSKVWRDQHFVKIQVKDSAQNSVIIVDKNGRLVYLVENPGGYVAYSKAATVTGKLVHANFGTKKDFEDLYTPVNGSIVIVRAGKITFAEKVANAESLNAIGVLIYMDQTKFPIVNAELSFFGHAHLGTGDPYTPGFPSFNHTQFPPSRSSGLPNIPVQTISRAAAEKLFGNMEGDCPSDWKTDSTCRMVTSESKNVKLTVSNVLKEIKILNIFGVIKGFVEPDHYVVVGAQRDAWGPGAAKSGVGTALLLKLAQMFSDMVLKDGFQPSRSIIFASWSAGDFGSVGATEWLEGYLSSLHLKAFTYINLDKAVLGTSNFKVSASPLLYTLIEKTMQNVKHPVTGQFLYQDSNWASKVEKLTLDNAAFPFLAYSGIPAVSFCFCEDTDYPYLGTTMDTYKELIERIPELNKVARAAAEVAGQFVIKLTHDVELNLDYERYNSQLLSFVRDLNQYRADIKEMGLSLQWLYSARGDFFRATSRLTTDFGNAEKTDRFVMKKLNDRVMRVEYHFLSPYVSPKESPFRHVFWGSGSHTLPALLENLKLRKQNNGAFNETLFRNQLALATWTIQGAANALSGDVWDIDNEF

B1: Clone 36 (VNAR)
VNAR: ARVDQTPQTITKETGESLTINCVLRDSNCALPSTYWYRKKSGSTNEESISKGGRYVETVNSGSKSFSLRINDLVVEDSGTYRCNVHCYGGDLHQLDVYGGGTAVTVNA
notes: VNAR on phage
Consider B1, for which, in test [1], the binding result is “no binding”.

B2: Clone 48 (VNAR)
VNAR: ARVDQTPRSVTKETGESLTINCVLRDASYELGSTCWYRKKSGSTNEESISKGGRYVETVNSGSKSFSLRINDLTVEDGGTYRCGASFMLSHPGGCDSCVIMCQTRRQGVAACGDGTAVTVNA
notes: VNAR on phage
B2: in test [1], the binding result was “no binding”.

B3: Clone 47 (VNAR)
VNAR: PRVDQTPQTITKETGESLTINCVLRDSNCALPSTYWYRKKSGSTNEENISKGGRYVETVNSGSKSFSLKINDLTVEDSGTYRCNVIINPLSCYYLQLQDVYGGGTAVTVNA
notes: VNAR on phage
B3: in test [1], the binding result is recorded as “no binding”.

B4: Clone 60 (VNAR)
VNAR: ARVDQTPQTITKETGESLTINCVLRDSNCDLSRTYWYRKKSGSTNEESISKGGRYVETVNSGSKSFSLRINDLTVEDSGTYRCNVYNPGNGWAMYDVYGGGTAVTVNA
notes: VNAR on phage
B4: the binding result in test [1] is “no binding”.

B5: Clone 41 (VNAR)
VNAR: ARVDQTPQTITKETGESLTINCVLRDSNCALSNLYWYRKKSGSTNEESISLGGRYVETVNSGSKSFSLRINDLTVEDSGTYRCKVTCEVALQPYYGQEPTQDVYGGGTVVTVNA
notes: VNAR on phage
As to B5, in test [1], the binding result is “no binding”.

B6: Clone 34 (VNAR)
VNAR: PRVDQTPQTITKETGESLTINCVLRDSNCALSSTYWYRKKSGSTNEESISKGGRYVETVNSGSKSFSLRINDLTVEDSGTYRCNVSSNAHCDGRRRDVYGGGTAVTVNA
notes: VNAR on phage
Take B6: the binding result in test [1] is “no binding”.

B7: Clone 46 (VNAR)
VNAR: ARVDQTPRVTKETGESLTINCVLRDASYELGSTCWYRKKSGSTNEESISKGGRYVETVNSGSKSFSLRINDLTVEDGGTYRCGASGSQGQVYRCDRLTLCCLQMQWQVAACGDGTAVTVNA
notes: VNAR on phage
B7: the binding result in test [1] is “no binding”.

B8: Clone 42 (VNAR)
VNAR: ARVDQTPQTITKETGESLTINCVLRDSNCELSSTYWYRKKSGSTNEARISKGGRYVETVNSGSKSFSLRINDLTVEDSGTYRCKVRKALVQSQSCCQPLHRDVYGDGTAVTVNA
notes: VNAR on phage
On to B8, for which the binding result in test [1] is listed as “no binding”.

B9: Clone 45 (VNAR)
VNAR: AVDQTPQTITKETGESLTINCVLRDSNCALSNLYWYRKKSDSTNEESISKGGRYVETVNSGSKSFSLRINDLTVEDSGTYRCNVCWWFSSRCTTCDVYGDGTAVTVNA
notes: VNAR on phage
For the molecule B9, the binding result in test [1] is “no binding”.

B10: Clone 35 (VNAR)
VNAR: ARVDQTPQTITKETGESLTINCVLRDSNCALSSTYWYRKKSDSTNEESISKGGRYVETVNSGSKSFSLRINDLTVKDSGTYRCNVSEDLQAICCWNDVYGDGTAVTVNA
notes: VNAR on phage
B10: the binding result in test [1] is recorded as “no binding”.

B11: Clone 37 (VNAR)
VNAR: B10 VNAR
notes: VNAR on phage
Turning to B11, the binding result in test [1] is “no binding”.

B12: Clone 33 (VNAR)
VNAR: PRVDQTPQTITKETGESLTINCVLRDSNCALSNLYWYRKKSGSTNEESISKGGRYVETVNSGSKSFSLRINDLTVEDSGTYRCNVLVGMLSGCGFQRGDVYGGGTAVTVNA
notes: VNAR on phage
Take B12: the binding result in test [1] was “no binding”.

B13: Clone 51 (VNAR)
VNAR: ARVDQTPQTITKETGESLTINCVLRDSNCALSSTLWYRTKSGSRNEESISKGGRYVETVNSGSKSFSLRINDLVVEDSGTYRCKVSHSGLCQYCHDLEDDVYGDGTAVTVNA
notes: VNAR on phage
In the case of B13, the binding result in test [1] is given as “no binding”.

B14: Clone 53 (VNAR)
VNAR: ARVDQTPQTITKETGESLTINCVLRDSNCALSSTYWYRKKSDSTNEESISKGGRYVETVNSGSKSFSLRINDLTVKDSGTYRCNVYLQDRPVCSPFNYDVYGGGTAVTVNA
notes: VNAR on phage
Regarding B14, the binding result in test [1] was “no binding”.

B15: Clone 58 (VNAR)
VNAR: ARVDQTPQTITKETGESLTINCVLRDSNCELSSTYWYRKKSGSTNEARISKGGRYVETVNSGSKSFSLRINDLTVEDSGTYRCNVGFSQSWGNSVGIVDVYGGGTAVTVNE
notes: VNAR on phage
Take B15: the binding result in test [1] is listed as “no binding”.

B16: Clone 44 (VNAR)
VNAR: ARVDQTPRSVTKETGESLTINCVLRDASYELGSTCWYRKKSGSTNEESISKGGRYVETVNSGSKSFSLRINDLTVEDGGTYRCGAGSVQRSTSQCDRLWSRCWRTRFKIAACGDGTAVTVNA
notes: VNAR on phage
In the case of B16, the binding result in test [1] is recorded as “no binding”.

B17: Clone 49 (VNAR)
VNAR: ARVDQTPQTITKETGESLTINCVLRDSNCALPSTYWYRKKSGSTNEESISKGGRYVETVNSGSKSFSLKINDLTVEDSGTYRCNVQGRAAYSGLVCDVYGGGTAVTVNA
notes: VNAR on phage
Turning to B17, the binding result in test [1] is reported as “no binding”.

B18: Clone 57 (VNAR)
VNAR: B17 VNAR with K69R, Q86R, R88F, A89K, A90Q, Y91C, S92Y, G93D, V95R, C96L
notes: VNAR on phage
Regarding B18, the binding result in test [1] is “no binding”.

B19: Clone 8.142 (VNAR)
VNAR: ARVDQTPQTITKETGESLTINCVLRDSNCALPSTYWYRKKSGSTNEESISKGGRYVETVNSGSKSFSLRINDLTVEDSGTYRCKVIAQLHANLRGCNYRKHDVYGDGTAVTVNA
notes: VNAR on phage; Clone 8 framework
Consider B19, for which the A450 in test [2] stood at 0.052 A450; in test [3] it was 0.045 A450.

B20: Clone 8.143 (VNAR)
VNAR: B19 VNAR with A91C, N92M
notes: as for B19
As to B20, the A450 amounted to 0.051 A450 in test [2] and 0.045 A450 in test [3].

B21: Clone 8.146 (VNAR)
VNAR: B19 VNAR with H90S, A91S, N92I, N97E, Y98A
notes: as for B19
As to B21, the A450 in test [2] and in test [3] was 0.045 A450 throughout.

B22: Clone 8.147 (VNAR)
VNAR: B19 VNAR with H90S, A91S, N92I, N97E, Y98G, R99D
notes: as for B19
Turning to B22, the A450 in test [2] was 0.052 A450; in test [3] it was 0.045 A450.

B23: Clone 8.145 (VNAR)
VNAR: B19 VNAR with H90S, A91S, N92I, R94Q, G95P, N97Y
notes: as for B19
With B23, the A450 in test [2] was 0.053 A450; in test [3], 0.045 A450.

B24: Clone 8.144 (VNAR)
VNAR: B19 VNAR with H90S, A91S, N92G, L93H
notes: as for B19
On to B24, for which the A450 came out at 0.05 A450 in test [2] and 0.045 A450 in test [3].

B25: Clone 8.148 (VNAR)
VNAR: B19 VNAR with H90S, A91S, N92I, R99E, K100H
notes: as for B19
For B25, the A450 in test [2] amounted to 0.049 A450; in test [3], 0.045 A450.

B26: Clone 32 (VNAR)
VNAR: ARVDQTPQTITKETGESLTINCVLRDSNCALSSTYWYRKKSGSTNEENISKGGRYVETVNSGSKSFSLRINDLTVEDSGTYRCNVQDMLTPNDGQLWDVYGDGTAVTVNA
notes: VNAR on phage
With B26, in test [1], the binding result was “no binding”.

B27: Clone 59 (VNAR)
VNAR: ARVDQTPQTITKETGESLTINCVLRDSNCALPSTYWYRKKSGSTNEESISKGGRYVETVNSGSKSFSLRINDLTVEDSGTYRCNVSLQFCCLSFDVYGGGTAVTVNA
notes: VNAR on phage
Consider B27, for which the binding result in test [1] is recorded as “no binding”.

B28: Clone 38 (VNAR)
VNAR: B27 VNAR with R69K, S86R, L87I, Q88I, F89Q, L92V, F94Q, A102V
notes: VNAR on phage
Regarding B28, the binding result in test [1] is “no binding”.

B29: Clone 50 (VNAR)
VNAR: B27 VNAR with G42D, E76K, S86L, L87I, F89C, C91S, L92P, S93T, F94C
notes: VNAR on phage
In the case of B29, the binding result in test [1] is recorded as “no binding”.

B30: Clone 54 (VNAR)
VNAR: ARVDQTPQTITKETGESLTINCVLRDSNCALPITYWYRKKSGSTNEESISKGGRYVETVNSGSKSFSLRINDLTVKDSGTYRCNVGAQYCDREISDVYGDGTAVTVNA
notes: VNAR on phage
On to B30, for which the binding result in test [1] is “no binding”.

B31: Clone 55 (VNAR)
VNAR: PRVDQTPQTITKETGESLTINCVLRDSNCALSSTLWYRTKSGSRNEESISKGGRYVETVNSGSKSFSLRINDLTVEDSGTYRCNVWCLTLGCSGKWDVYGGGTAVTVNA
notes: VNAR on phage
In the case of B31, the binding result in test [1] is listed as “no binding”.

B32: Clone 56 (VNAR)
VNAR: ARVDQTPQTITKETGESLTINCVLRDSNCALSSTYWYRKKSDSTNEESISKGGRYVETVNSGSKSFSLRINDLVVEDSGTYRCNVQSKEKLHCQVVVDVYGGGTAVTVNA
notes: VNAR on phage
In the case of B32, in test [1], the binding result is reported as “no binding”.

B33: Clone 52 (VNAR)
VNAR: PRVDQTPQTITKETGESLTINCVLRDSNCALSSTYWYRKKSGSTNEENISKGGRYVETVNSGSKSFSLRINDLTVEDSGTYRCNVAFFACQYKNDVYGGGTVVTVNA
notes: VNAR on phage
Consider B33, for which the binding result in test [1] was “no binding”.

The record behind these values is patent publication US20210395381A1 (OSSIANIX, published 2021).
